Data from US20220363762A1, “METHODS AND COMBINATIONS FOR THE TREATMENT OF CANCER USING IMMUNE CHECKPOINT INHIBITOR ANTIBODIES” (ASTRAZENECA AB, priority 2020, published 2022).

B1: Tremelimumab (antibody)
VL: PSSLSASVGDRVTITCRASQSINSYLDWYQQKPGKAPKLLIYAASSLQSGVPSRFSGSGSGTDFTLTISSLQPEDFATYYCQQYYSTPFTFGPGTKVEIKRTVAAPSVFIFPPSDEQLKSGTASVVCLLNNFYPREAKV
VH: GVVQPGRSLRLSCAASGFTFSSYGMHWVRQAPGKGLEWVAVIWYDGSNKYYADSVKGRFTISRDNSKNTLYLQMNSLRAEDTAVYYCARDPRGATLYYYYYGMDVWGQGTTVTVSSASTKGPSVFPLAPCSRSTSESTAALGCLVKDYFPEPVTVSWNSGALTSGVH
modifications: light chain variable region; heavy chain variable region
notes: anti-CTLA-4 antibody; arm T = tremelimumab 750 mg monotherapy

What was measured:
Format in all cases: in vivo, human
[1] = system: peripheral blood T cell receptors (TCRs); experiment: Molecular analysis of peripheral blood T cell receptors (TCR clonal expansion); conditions: for Median expanded T cell clones at Day 29, n: Day 29, first cycle of Q4W dosing, spread in cell beside
From the text: This trend was not seen with monotherapy D or the lower dose T combination (T75+D) (FIG. 15). Additionally, greater clonal expansion of T-cells was associated with better OS and seen in D+T combination arms (FIG. 16).

advanced HCC = experiment: Randomized, open-label, multi-center clinical study of durvalumab and tremelimumab (Example 2): efficacy; conditions: for ORR, % / Median (95% CI) OS, mo: Table 1, per study arm; for Median (95% CI) OS, mo: 95% CI in cell beside; for Median PFS (95% CI): patients with advanced HCC
Procedure: The study disclosed below is a randomized, open-label, multi-center, global, clinical study to assess the efficacy and safety of durvalumab monotherapy and durvalumab plus tremelimumab combination therapy versus sorafenib in the treatment of immune checkpoint inhibitor-naïve patients with HCC who progressed on, were intolerant to, or refused sorafenib. In the foregoing disclosure, a flat-dose regimen of 1500 mg (approximately equivalent to 20 mg/kg) of durvalumab plus 300 mg (equivalent to 4 mg/kg) of tremelimumab was used in this study.
The study population included patients 18 years of age or older with advanced HCC, Barcelona Clinic Liver Cancer Stage B (not eligible for locoregional therapy) or stage C, and Child-Pugh A classification liver disease. Patients must not have received any prior systemic therapy for HCC. Patients were stratified according to macrovascular invasion (yes versus no), etiology of liver disease (hepatitis B virus [confirmed HBV] versus hepatitis C virus [confirmed HCV] versus others), and performance status (Eastern Cooperative Oncology Group [ECOG] 0 versus 1).
A total of 332 patients were enrolled (T300+D, n=75; durvalumab, n=104; tremelimumab, n=69; T75+D, n=84). Patients were randomized in an equal ratio to groups treated with durvalumab 1500 mg monotherapy (D), tremelimumab 750 mg monotherapy (T), combination therapy with durvalumab 1500 mg plus tremelimumab 75 mg×4 doses (T75+D) followed by durvalumab Q4W, combination therapy with durvalumab 1500 mg plus tremelimumab 300 mg xl dose (T 300+D) followed by durvalumab Q4W. Upon closure to further enrollment into the T75+D arm, patients were randomized in an equal ratio to groups treated with D, T300+D, and Sorafenib. Durvalumab and tremelimumab were administered via intravenous (IV) infusion every 4 weeks (Q4W). Sorafenib was administered orally BID (see FIGS. 3 and 4).
Tremelimumab 750 mg via IV infusion Q4W starting at Week 0 for seven doses and then Q12W until confirmed PD, unacceptable toxicity, or any discontinuation criterion was met. (Note: If a patient's weight decreased to ≤30 kg, the patient received weight-based dosing of tremelimumab 10 mg/kg Q4W, until the weight increased to >30 kg, at which point the patient received the flat dose of tremelimumab 750 mg Q4W).
Durvalumab 1500 mg monotherapy • Durvalumab 1500 mg via IV infusion Q4W starting at Week 0 until confirmed PD, unacceptable toxicity, or any discontinuation criterion was met. (Note: If a patient's weight decreased to ≤30 kg, the patient received weight-based dosing of durvalumab 20 mg/kg Q4W, until the weight increased to >30 kg, at which point the patient received the flat dose of durvalumab 1500 mg Q4W.)
Durvalumab 1500 mg plus tremelimumab 75 mg×4 doses combination therapy (Arm B) • Durvalumab 1500 mg plus tremelimumab 75 mg×4 doses starting at Week 0, followed by durvalumab 1500 mg monotherapy Q4W starting 4 weeks after the final infusion of the combination therapy until confirmed PD, unacceptable toxicity, or any discontinuation criteria was met. (Note: If a patient's weight decreased to 30 kg or below (≤30 kg), the patient received weight-based dosing of durvalumab 20 mg/kg Q4W and tremelimumab 1 mg/kg Q4W, until the weight increased to >30 kg, at which point the patient received the original assigned flat dose of durvalumab 1500 mg Q4W with or without tremelimumab 75 mg Q4W.)
Durvalumab 1500 mg plus tremelimumab 300 mg×1 dose combination therapy (Arm C) • Durvalumab 1500 mg plus tremelimumab 300 mg×1 dose starting at Week 0, followed by durvalumab 1500 mg monotherapy Q4W starting 4 weeks after the first and final infusion of the combination therapy until confirmed PD, unacceptable toxicity, or any discontinuation criteria was met. […]

[2] = system: proliferating CD8+Ki67+ T cells; experiment: Exposure-response model: tremelimumab exposure versus proliferating CD8+Ki67+ T cells
Procedure: (§1) Finally, an exposure-response model was developed to describe the relationship between tremelimumab exposure and proliferating CD8+Ki67+ T cells in patients with uHCC. Relationships between tremelimumab trough concentration after the first dose (Cmin) and the maximum change from baseline (CFB) for CD8+ Ki67+ T cell counts were evaluated using linear and non-linear regression models. Covariate effects were evaluated on the model intercept and the drug effect (Emax) using a stepwise search approach. The relationship between CD8+ Ki67+ T cell count CFB and tremelimumab trough concentration was best described by an Emax model. The only statistically significant and well estimated covariate effect was the baseline CD8+ Ki67+ T cell count on Emax. The maximum effect was higher in patients with lower baseline CD8+ Ki67+ T cell counts and lower in patients with higher baseline CD8+ Ki67+ T cell counts. At the 10th, median, and 90th percentiles of baseline CD8+ (3, 9, and 25 cells/uL), the maximum effect is 593%, 341%, and 77.9% change from baseline, respectively.

[3] = Tremelimumab trough concentration after the first dose (Cmin); conditions: 300 mg tremelimumab
Procedure: as §1

Molecule | clonal expansion of T cells in responders compared to non-responders ([1]; Day 29) | Median expanded T cell clones at Day 29, n [1] | median increased T-cell clonal expansion, difference between arms ([1]; day 29, D versus T75+D arms) | ORR, % (advanced HCC) | Median (95% CI) OS, mo (advanced HCC) | Median PFS (95% CI) (advanced HCC) | maximum effect (Emax), change from baseline of CD8+ Ki67+ T cell count ([2]; 10th percentile of baseline CD8+ (3 cells/uL)) | maximum effect (Emax), change from baseline of CD8+ Ki67+ T cell count ([2]; 90th percentile of baseline CD8+ (25 cells/uL)) | estimated half-maximal effective concentration (EC50) ([2]; Emax model, Cmin versus maximum change from baseline of CD8+ Ki67+ T cell counts, uHCC patients) | maximum effect (Emax), change from baseline of CD8+ Ki67+ T cell count ([2]; median baseline CD8+ (9 cells/uL)) | median Cmin [3]
Durvalumab [reference compound] | not seen | 32 | no significant difference | 10.6% | 13.6 mo | 2.07 (1.84-2.83) months | – | – | – | – | –
B1 | – | 100 | – | 7.2% | 15.1 mo | 2.69 (1.87-5.29) months | 593% | 77.9% | 5.24 µg/mL | 341% | 12900 ng/mL
